Source: the supplement of paper PMC9732359
± gives the uncertainty stated by the source.

Test: protein stability index of a GFP-peptide fusion (yeast GPS) (PSI 1-4); higher = more stable; sorted into four equal gates, so the index is relative within each strain
Outline: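 Tiled 17-residue yeast protein peptides were fused downstream of GFP in a plasmid that also expresses Cherry, and the pooled library was carried in yeast. Mid-log cultures in leucine-free medium were sorted into four equal gates by GFP/Cherry fluorescence ratio, and plasmids from each gate were PCR-amplified and Illumina-sequenced, with reads assigned to strains by barcodes. The protein stability index for each peptide was each gate's read frequency times its gate number, summed.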

| Sequence | protein stability index (doa10∆) | protein stability index (pdr5∆) | protein stability index (san1∆) | protein stability index (ubr1∆) |
| --- | --- | --- | --- | --- |
| QLLQRIPNIPPNINTWQ [GAL11] | 2.55 ± 0.048 | 2.72 ± 0.049 | 1.96 ± 0.059 | 2.62 ± 0.044 |
| MGYSGWCTTCKSAENII [RET1] | 3.21 ± 0.15 | 2.99 ± 0.14 | 3.22 ± 0.079 | 3.19 ± 0.094 |
| DTSRPDLEWQELTSFSS [DSN1] | 3.18 ± 0.053 | 3.05 ± 0.053 | 3.08 ± 0.055 | 2.85 ± 0.042 |
| IIVAGYDDKNKGEVYTI [PRE3] | 3 ± 0.083 | 3.12 ± 0.096 | 3.42 ± 0.089 | 3.45 ± 0.098 |
| GASIIQVIFEIFEISLQ [YML103C/NUP188] | 1.53 ± 0.046 | 1.82 ± 0.044 | 2.1 ± 0.065 | 2.06 ± 0.043 |
| REFLKVDQEMLYEIILA [SKP1] | 2.81 ± 0.066 | 2.85 ± 0.065 | 2.86 ± 0.096 | 2.96 ± 0.051 |
| LIEYMENDAKKSKGDVD [NUT1] | 3.05 ± 0.11 | 3.1 ± 0.079 | 3.1 ± 0.08 | 3.03 ± 0.058 |
| MVTENPQRLTVLRLATN [MCD1] | 2.25 ± 0.069 | 2.32 ± 0.056 | 2.3 ± 0.062 | 2.38 ± 0.051 |
| FKSALANLEDIIFEIEK [RRP6] | 3.21 ± 0.13 | 3.13 ± 0.096 | 3.2 ± 0.071 | 2.83 ± 0.12 |
| IEATDLGNIASSFYINH [BRR2] | 3 ± 0.085 | 3.04 ± 0.1 | 3.12 ± 0.078 | 3.3 ± 0.072 |
| GRILKWLWPLCRGELKA [CDC53] | 1.58 ± 0.095 | 1.64 ± 0.06 | 1.32 ± 0.11 | 1.13 ± 0.045 |
| ITKVPALEFLNTTLQDN [REC8] | 2.77 ± 0.08 | 2.7 ± 0.15 | 2.98 ± 0.12 | 2.71 ± 0.084 |
| DFIKFDAGKLVYVTGGR [RPS4A] | 2.22 ± 0.13 | 2.1 ± 0.086 | 2.41 ± 0.1 | 2.36 ± 0.094 |
| PGWDFETEEIDPELLRS [RPL5] | 3.34 ± 0.13 | 3.19 ± 0.081 | 3.11 ± 0.057 | 2.77 ± 0.17 |
| HILRISFLDRKRAKEFI [SIN4] | 2.42 ± 0.079 | 2.67 ± 0.078 | 2.05 ± 0.063 | 2.4 ± 0.049 |
| NRWHSESWANQLTVCGA [FAS2] | 1.93 ± 0.04 | 1.87 ± 0.053 | 1.8 ± 0.086 | 1.86 ± 0.042 |
| QILSVAIPNGIHLQRFD [RPO21] | 2.41 ± 0.1 | 2.33 ± 0.075 | 1.94 ± 0.1 | 2.77 ± 0.079 |
| DKLPQFVDENTFQRVCQ [RPN1] | 3.04 ± 0.082 | 3.28 ± 0.12 | 3.15 ± 0.062 | 3.3 ± 0.078 |
| TRYMFQRDFRKHGAVHM [RPL21B] | 2.22 ± 0.099 | 2.14 ± 0.06 | 1.79 ± 0.12 | 1.99 ± 0.077 |
| MVNVPKTRKTYCKGKTC [RPL42A] | 1.42 ± 0.15 | 1.41 ± 0.1 | 1.99 ± 0.25 | 1.35 ± 0.075 |
| IEIDYTVRVDKASTYGE [SNF12] | 1.68 ± 0.08 | 1.41 ± 0.067 | 1.53 ± 0.16 | 1.39 ± 0.04 |
| YEILLKILITYGSSPKL [SRB8] | 1.27 ± 0.055 | 1.6 ± 0.053 | 1.35 ± 0.092 | 1.47 ± 0.055 |
| YLKNVLFAFNGVARNFH [SIN4] | 2.55 ± 0.082 | 2 ± 0.056 | 1.79 ± 0.064 | 2.15 ± 0.063 |
| ITNDWEQPCVDIISGKI [YJR042W/NUP85] | 3.36 ± 0.078 | 3.44 ± 0.066 | 3.18 ± 0.053 | 3.02 ± 0.058 |
| DPHSASLINSHLKILAS [RPC82] | 2.15 ± 0.22 | 1.38 ± 0.12 | 1.38 ± 0.19 | 1.23 ± 0.059 |
| QLLKEDSEKRNKYAAML [RRP45] | 3.13 ± 0.11 | 2.81 ± 0.089 | 2.75 ± 0.18 | 2.97 ± 0.05 |
| IYLSQNELTDAIALAVR [RPN1] | 2.58 ± 0.045 | 2.67 ± 0.052 | 2.88 ± 0.039 | 2.59 ± 0.032 |

| Sequence | protein stability index (doa10∆) | protein stability index (pdr5∆) | protein stability index (san1∆) | protein stability index (ubr1∆) |
| --- | --- | --- | --- | --- |
| PWDTSLEVGRRFSPDED [MCD1] | 3.25 ± 0.14 | 3.44 ± 0.19 | 3.28 ± 0.15 | 3.41 ± 0.17 |
| SFFVSVRKAITVLFFIG [FAS1] | 1.48 ± 0.087 | 1.34 ± 0.11 | – | 1.09 ± 0.041 |
| KHEDLSLEQRQEVTKFA [RPN4] | 2.85 ± 0.15 | 3.05 ± 0.23 | 2.84 ± 0.1 | – |
| LSRLQKSGRINGFHGRL [SMC4] | 3.26 ± 0.15 | 3.57 ± 0.15 | 3.29 ± 0.081 | 3.19 ± 0.064 |
| MLKRFFPGVKGLVHDLC [SMC1] | – | – | 1.95 ± 0.14 | 2.42 ± 0.17 |
| TNYEMSYWQKSYFKNSV [LIN1] | 2.07 ± 0.038 | 2.09 ± 0.036 | 2.09 ± 0.061 | 1.99 ± 0.037 |
| SKKAEKTGTKPAAVFTE [RPL4A] | 2.52 ± 0.068 | 2.79 ± 0.085 | 2.44 ± 0.072 | 2.76 ± 0.061 |
| QKKVPDKLLDPTTVSYI [SCL1] | 2.9 ± 0.05 | 2.28 ± 0.047 | 2.4 ± 0.056 | 2.67 ± 0.044 |
| DWIRFVSIRQNQYKLVF [RPL22B] | 1.37 ± 0.076 | 1.48 ± 0.041 | 1.26 ± 0.1 | 1.26 ± 0.055 |
| LLETITYVLNTWTNSKI [YML103C/NUP188] | 1.85 ± 0.05 | 2.21 ± 0.05 | 2.14 ± 0.066 | 2.29 ± 0.036 |
| AAATFPIAQPATDVEAR [RPL13A] | 2.65 ± 0.05 | 2.38 ± 0.042 | 2.71 ± 0.066 | 2.29 ± 0.04 |
| TVKTSDDYVLRIFAIAF [RPS1A] | 2.534 ± 0.02 | 2.308 ± 0.018 | 2.453 ± 0.023 | 2.55 ± 0.016 |
| GNPLLYDGVERVSLQDI [QCR2] | 1.73 ± 0.23 | 2.18 ± 0.17 | 2.03 ± 0.17 | 2.19 ± 0.17 |
| QERNKIHQYLFQEGVVV [RPS10B] | 1.27 ± 0.06 | 1.39 ± 0.044 | 1.45 ± 0.09 | 1.45 ± 0.037 |
| LFVGTDRQLHEISTSKK [RPN14] | 2.91 ± 0.07 | 2.91 ± 0.076 | 2.9 ± 0.092 | 2.7 ± 0.092 |
| ALEEGLNEEAVIFLSSL [YJL039C/NUP192] | 3.28 ± 0.1 | 3.05 ± 0.062 | 3 ± 0.07 | 2.99 ± 0.065 |
| GHYQAFIRDELDENKWY [UBP6] | 1.49 ± 0.057 | 1.88 ± 0.047 | 1.53 ± 0.12 | 1.85 ± 0.063 |
| LDNFETKTEALLSDVVS [YJL041W/NSP1] | 2.4 ± 0.054 | 2.72 ± 0.069 | 2.35 ± 0.063 | 2.12 ± 0.059 |
| SPERFATLGIDPPKGIL [RPT1] | 2.74 ± 0.066 | 2.76 ± 0.058 | 2.42 ± 0.078 | 2.77 ± 0.045 |
| DLTLDDISLKADLERFF [YJL039C/NUP192] | 3.29 ± 0.053 | 3.35 ± 0.076 | 3.41 ± 0.036 | 3.23 ± 0.039 |
| YSSIPSLQDSIIKQENF [SSN2] | 2.7 ± 0.13 | 2.99 ± 0.17 | 2.5 ± 0.086 | 2.79 ± 0.14 |
| KVNSRDDSFFNETNDKK [PRP28] | 2.82 ± 0.12 | 3.1 ± 0.11 | 3.04 ± 0.13 | 2.94 ± 0.12 |
| TFVPTNSDKPRDVYVFD [DIS3] | 3 ± 0.062 | 2.93 ± 0.071 | 3.11 ± 0.064 | 3 ± 0.059 |
| WQVIITDDQGRVIDDNN [SIR3] | 3.49 ± 0.11 | 3.43 ± 0.1 | 3.31 ± 0.08 | 3.52 ± 0.073 |
| SKSGRIFALVFSSNERY [RPN13] | 2.45 ± 0.1 | 2.74 ± 0.086 | 2.28 ± 0.11 | 2.62 ± 0.049 |
| AGKVKSQTPKVEKTEKP [RPS30A] | 3.18 ± 0.078 | 2.9 ± 0.093 | 2.95 ± 0.072 | 2.93 ± 0.055 |
